Measured values: PMC11239689

Target: Toll-like receptor 2 (TLR2), endogenous in HT29 cells (human (endogenous in HT29)) (UniProt O60603)
UniProt O60603, sequence (O60603 21-784): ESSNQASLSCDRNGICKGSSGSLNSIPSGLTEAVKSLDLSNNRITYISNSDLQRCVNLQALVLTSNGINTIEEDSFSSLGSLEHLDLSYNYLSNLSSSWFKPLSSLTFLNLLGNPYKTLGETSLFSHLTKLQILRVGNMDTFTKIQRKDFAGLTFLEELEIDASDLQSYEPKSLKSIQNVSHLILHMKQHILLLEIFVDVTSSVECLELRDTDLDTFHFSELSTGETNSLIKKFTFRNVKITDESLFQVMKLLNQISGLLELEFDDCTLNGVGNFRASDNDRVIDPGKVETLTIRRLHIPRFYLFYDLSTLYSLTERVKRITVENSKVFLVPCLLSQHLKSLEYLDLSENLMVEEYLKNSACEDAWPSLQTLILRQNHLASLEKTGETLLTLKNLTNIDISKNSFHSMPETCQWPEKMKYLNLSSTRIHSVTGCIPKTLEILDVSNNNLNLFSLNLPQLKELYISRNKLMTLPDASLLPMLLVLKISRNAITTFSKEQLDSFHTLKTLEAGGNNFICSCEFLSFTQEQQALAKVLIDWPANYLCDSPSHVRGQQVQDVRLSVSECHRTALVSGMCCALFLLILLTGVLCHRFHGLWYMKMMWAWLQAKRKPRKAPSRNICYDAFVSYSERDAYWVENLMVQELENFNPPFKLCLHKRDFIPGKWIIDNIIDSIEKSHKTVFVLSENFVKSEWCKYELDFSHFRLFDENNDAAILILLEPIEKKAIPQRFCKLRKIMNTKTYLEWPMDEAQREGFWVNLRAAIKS

Substance: GbpA domain 4, purified recombinant (domain or fragment)
- IL-8 secreted by HT29 cells treated with 250 ng GbpA 4 for 8 h (sandwich ELISA): 443 pg/mL
